Target: T1, FHHDbf2-H6Mob1TM9 (Saccharomyces cerevisiae, UniProt P22204+P40484)
T1 construct: made in house; host or cells: Hi5 insect cells (baculovirus)
T1 sequence (P22204 1-572): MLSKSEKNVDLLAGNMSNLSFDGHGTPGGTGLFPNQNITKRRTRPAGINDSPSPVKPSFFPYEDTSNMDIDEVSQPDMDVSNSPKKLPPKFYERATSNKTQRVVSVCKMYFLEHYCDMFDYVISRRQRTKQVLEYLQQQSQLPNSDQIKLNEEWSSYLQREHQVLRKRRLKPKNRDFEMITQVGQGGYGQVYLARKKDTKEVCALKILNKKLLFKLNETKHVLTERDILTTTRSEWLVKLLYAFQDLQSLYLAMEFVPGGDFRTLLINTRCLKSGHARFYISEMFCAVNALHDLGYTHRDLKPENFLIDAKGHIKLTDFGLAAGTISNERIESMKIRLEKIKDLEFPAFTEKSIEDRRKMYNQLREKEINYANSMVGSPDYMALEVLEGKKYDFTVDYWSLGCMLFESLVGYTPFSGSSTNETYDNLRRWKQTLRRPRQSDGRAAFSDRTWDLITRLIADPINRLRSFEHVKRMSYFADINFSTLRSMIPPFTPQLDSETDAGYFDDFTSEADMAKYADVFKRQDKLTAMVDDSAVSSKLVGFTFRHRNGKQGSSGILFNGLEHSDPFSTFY
T1 sequence (P40484 1-314 partner): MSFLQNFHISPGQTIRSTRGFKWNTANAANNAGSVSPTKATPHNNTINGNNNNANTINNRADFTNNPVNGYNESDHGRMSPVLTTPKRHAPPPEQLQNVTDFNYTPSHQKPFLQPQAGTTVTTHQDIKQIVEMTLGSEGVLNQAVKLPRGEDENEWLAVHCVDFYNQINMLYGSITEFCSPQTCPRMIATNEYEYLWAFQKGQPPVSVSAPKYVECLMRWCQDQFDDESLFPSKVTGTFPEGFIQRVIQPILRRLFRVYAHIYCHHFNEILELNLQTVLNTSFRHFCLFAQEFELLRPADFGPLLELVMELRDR
Assay: Yeast proteome chip assay
Assay type: biochemical
Conditions: Table 3; GST fusion proteins on proteome chip, [γ-33P]ATP, chips in duplicate, computer analysis
Protocol: The relatively low sequence complexity of the Dbf2 phosphorylation motif diminished the power of using genome-wide bioinformatics screens to identify putative substrates. Accordingly, we carried out a proteome array screen to identify putative yeast substrates. […] After taking into account the proteins phosphorylated in the negative controls, 67 proteins were determined to be putative Dbf2-Mob1 substrates (Table 3).
Yeast proteome microarrays were prepared as previously described. Overexpressed GST-tagged yeast proteins were purified from ~4,400 yeast strains and spotted on slides. To determine the optimal amount of kinase to use for probing proteome chips, we performed trial assays as described (J. Ptacek et al., submitted). […] The full proteome array was probed with 4 μl ^FHHDbf2-^H6Mob1^TM9 in 200 μl of DKB supplemented with [γ-^33P]ATP. As a control, ^FHHDbf2(N305A)-^H6Mob1^TM9 was used to probe the proteome array. […] To control for autophosphorylated proteins, the proteome array was probed with 200 μl of DKB supplemented with [γ-^33P]ATP. Proteome chips were assayed in duplicate in each case. Data analysis was performed as described (J. Ptacek et al., submitted). Briefly, signals were analyzed by a computer algorithm designed to normalize background and identify signals as positive if 3 of 4 spots (each protein is spotted twice on each slide and each kinase or control was tested on 2 slides) were 2 standard deviations above background and the fourth spot was 1.5 standard deviations above background.

| Substance | Slide Signal (after normalization) |
| --- | --- |
| YDL220C: GST fusion yeast protein on proteome chip | 1.0274 |
| YDR171W: GST fusion yeast protein on proteome chip | 0.442 |
| YMR229C: GST fusion yeast protein on proteome chip | 2.6954 |
| YNL007C: GST fusion yeast protein on proteome chip | 0.2239 |

Same assay, conditions: Table 4, the 25 proteins with highest signal relative to protein amount; [γ-33P]ATP, chips in duplicate

| Substance | Slide Signal (after normalization) |
| --- | --- |
| YDL220C: GST fusion yeast protein on proteome chip | 1.0274 |
| YMR229C: GST fusion yeast protein on proteome chip | 2.6954 |

— PMC1277818, “Substrate specificity analysis of protein kinase complex Dbf2-Mob1 by peptide library and proteome array screening” (BMC Biochemistry, 2005)
